One substance from patent US20220259317A1 can be followed below.

The target of this experiment is FLT3 CAR (Short Form; NC7 based FLT3 CAR), SEQ ID NO: 1/29. In words: flow cytometry of FLT3 CAR transduced T cells stained with biotinylated protein L and streptavidin PE. Background: Flow cytometry measures light scatter and fluorescence of single cells or particles in a stream.
Sequence of FLT3 CAR (Short Form; NC7 based FLT3 CAR), SEQ ID NO: 1/29 (chain, as listed by the source): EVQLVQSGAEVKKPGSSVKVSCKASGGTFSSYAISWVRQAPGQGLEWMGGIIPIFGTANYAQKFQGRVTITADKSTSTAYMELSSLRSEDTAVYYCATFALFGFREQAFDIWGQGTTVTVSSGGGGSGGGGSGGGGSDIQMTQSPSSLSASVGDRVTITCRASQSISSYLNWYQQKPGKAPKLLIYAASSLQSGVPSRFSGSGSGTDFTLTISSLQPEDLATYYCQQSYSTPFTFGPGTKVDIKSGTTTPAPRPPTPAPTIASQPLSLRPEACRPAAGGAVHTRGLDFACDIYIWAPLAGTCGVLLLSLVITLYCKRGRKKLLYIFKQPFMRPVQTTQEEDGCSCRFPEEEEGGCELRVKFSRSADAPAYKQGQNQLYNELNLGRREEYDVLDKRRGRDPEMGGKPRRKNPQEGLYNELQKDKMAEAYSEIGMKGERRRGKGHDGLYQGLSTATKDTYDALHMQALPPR

In turn, biotinylated protein L (Genscript) showed a % positive cells of 77.1%.
